Experimental data taken from US20160297884A1 (Pfizer, published 2016).

B1: COMBO_Rd4_0.6nM_C20 (antibody, V domains shown)
VH: EVQLLESGGGLVQPGGSLRLSCAASGFTFSSYPMSWVRQAPGKGLEWVSAIGGSGGSLPYADSVKGRFTISRDNSKNTLYLQMNSLRAEDTAVYYCARYWPMDSWGQGTLVTVSS
VL: EIVLTQSPGTLSLSPGERATLSCRASQSVSYLYLAWYQQKPGQAPRLLMYDASIRATGIPDRFSGSGSGTDFTLTISRLEPEDFAVYYCQQYMEWPLTFGQGTKVEIK
notes: IgG
B2: COMBO_Rd4_6nM_C12 (antibody, V domains shown)
VH: EVQLLESGGGLVQPGGSLRLSCAASGFTFSSYPMSWVRQAPGKGLEWVSAALGSGGSTYYADSVKGRFTISRDNSKNTLYLQMNSLRAEDTAVYYCARYWPMDSWGQGTLVTVS
VL: EIVLTQSPGTLSLSPGERATLSCRASQSVSASYLAWYQQKPGQAPRLLMYDASIRATGIPDRFSGSGSGTDFTLTISRLEPEDFAVYYCQQYMSWPLTFGQGTKVEIK
notes: IgG
B3: A02_Rd4_0.6nM_C18 (antibody, V domains shown)
VH: EVQLLESGGGLVQPGGSLRLSCAASGFTFSSYAMNWVRQAPGKGLEWVSAVLDSGGSTYYADSVKGRFTISRDNSKNTLYLQMNSLRAEDTAVYYCARYWPMSLWGQGTLVTVSS
VL: EIVLTQSPGTLSLSPGERATLSCRASQSVSELYLAWYQQKPGQAPRLLMYDASIRATGIPDRFSGSGSGTDFTLTISRLEPEDFAVYYCQQYFGWPLTFGQGTKVEIK
notes: IgG
B4: COMBO_Rd4_0.6nM_C30 (antibody, V domains shown)
VH: EVQLLESGGGLVQPGGSLRLSCAASGFTFSSYPMSWVRQAPGKGLEWVSAIGGSGGSTYYADSVKGRFTISRDNSKNTLYLQMNSLRAEDTAVYYCARYWPMDSWGQGTLVTVSS
VL: EIVLTQSPGTLSLSPGERATLSCRASQSVSYMYLAWYQQKPGQAPRLLIYDASIRATGIPDRFSGSGSGTDFTLTISRLEPEDFAVYYCQQYKSWPLTFGQGTKVEIK
notes: IgG
B5: COMBO_Rd4_6nM_C21 (antibody, V domains shown)
VH: EVQLLESGGGLVQPGGSLRLSCAASGFTFSSYPMSWVRQAPGKGLEWVSAIGGSGGSLPYADSVKGRFTISRDNSKNTLYLQMNSLRAEDTAVYYCARYWPMDSWGQGTLVTVSS
VL: EIVLTQSPGTLSLSPGERATLSCRASQSVSAAYLAWYQQKPGQAPRLLMYDASIRATGIPDRFSGSGSGTDFTLTISRLEPEDFAVYYCQQYMCWPLTFGQGTKVEIK
notes: IgG
B6: COMBO_Rd4_6nM_C22 (antibody, V domains shown)
VH: EVQLLESGGGLVQPGGSLRLSCAASGFTFSSYAMNWVRQAPGKGLEWVSACLDSGGSTYYADSVKGRFTISRDNSKNTLYLQMNSLRAEDTAVYYCARYWPMDSWGQGTLVTVSS
VL: EIVLTQSPGTLSLSPGERATLSCRASQSVSSSYLAWYQQKPGQAPRLLMYDASIRATGIPDRFSGSGSGTDFTLTISRLEPEDFAVYYCQQYQGWPLTFGQGTKVEIK
notes: IgG
B7: COMBO_Rd4_6nM_C09 (antibody, V domains shown)
VH: EVQLLESGGGLVQPGGSLRLSCAASGFTFSSYPMSWVRQAPGKGLEWVSAIFASGGSTYYADSVKGRFTISRDNSKNTLYLQMNSLRAEDTAVYYCARYWPMDSWGQGTLVTVSS
VL: EIVLTQSPGTLSLSPGERATLSCRASQSVSAQYLAWYQQKPGQAPRLLMYDASIRATGIPDRFSGSGSGTDFTLTISRLEPEDFAVYYCQQYQAWPLTFGQGTKVEIK
notes: IgG
B8: COMBO_Rd4_6nM_C10 (antibody, V domains shown)
VH: EVQLLESGGGLVQPGGSLRLSCAASGFTFSSYPMSWVRQAPGKGLEWVSAIGGSGGSIHYADSVKGRFTISRDNSKNTLYLQMNSLRAEDTAVYYCARYWPMDSWGQGTLVTVSS
VL: EIVLTQSPGTLSLSPGERATLSCRASQSVSSSYWGWYQQKPGQAPRLLMYDASIRATGIPDRFSGSGSGTDFTLTISRLEPEDFAVYYCQQYQCWPLTFGQGTKVEIK
notes: IgG

Experiments:
[1] = biological target: T1, Cynomolgus monkey BCMA (cynomolgus monkey); assay: SPR, IgG immobilised, cyno BCMA analyte
T1 construct: Soluble analyte in SPR; also called cyBCMA; Cyno BCMA
In short: (§1)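 Kinetic titration: huBCMA/cyBCMA 0.08–50 nM (5-fold steps), 2 min association per step, 2 h dissociation after top dose; HBS-T+ + 1 mg/mL BSA, 25 or 37° C; double-referenced, fit 1:1 Langmuir with mass transport.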

[2] = biological target: T2, Human BCMA (human, UniProt Q02223 1-54, limits assumed); assay: SPR, IgG immobilised, human BCMA analyte
T2 construct: also called huBCMA; B-cell maturation antigen
T2 sequence (looked up): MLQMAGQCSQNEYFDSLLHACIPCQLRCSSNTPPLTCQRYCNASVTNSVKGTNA
In short: as §1

| Binder | Kd [1] [nM] | koff [1] [s⁻¹] | kon [1] [M⁻¹ s⁻¹] | Kd [2] [nM] | koff [2] [s⁻¹] | kon [2] [M⁻¹ s⁻¹] |
| --- | --- | --- | --- | --- | --- | --- |
| B1 | 0.092 | 0.000284 | 3.09e+06 | 0.019 | 0.000146 | 7.65e+06 |
| B2 | 0.148 | 0.000486 | 3.29e+06 | 0.02 | 0.00027 | 1.38e+07 |
| B3 | 0.197 | 0.000639 | 3.24e+06 | 0.048 | 0.000229 | 4.73e+06 |
| B4 | 0.481 | 0.000808 | 1.68e+06 | 0.065 | 0.000282 | 4.35e+06 |
| B5 | 0.078 | 0.000248 | 3.17e+06 | 0.006 | 7.34e-05 | 1.17e+07 |
| B6 | 0.972 | 0.00165 | 1.7e+06 | 0.256 | 0.000775 | 3.03e+06 |
| B7 | 0.134 | 0.000318 | 2.37e+06 | 0.016 | 0.000143 | 8.85e+06 |
| B8 | 0.105 | 0.00016 | 1.52e+06 | 0.018 | 9.72e-05 | 5.47e+06 |
